# Data from US20180333469.
# Entries after “also recorded” stand apart in the source; their conditions may differ.
# B1: fVIIa/TF enzyme complex (protein)
# chain 1: ANAFLEELRPGSLERECKEEQCSFEEAREIFKDAERTKLFWISYSDGDQCASSPCQNGGSCKDQLQSYICFCLPAFEGRNCETHKDDQLICVNENGGCEQYCSDHTGTKRSCRCHEGYSLLADGVSCTPTVEYPCGKIPILEKRNASKPQGRIVGGKVCPKGECPWQVLLLVNGAQLCGGTLINTIWVVSAAHCFDKIKNWRNLIAVLGEHDLSEHDGDEQSRRVAQVIIPSTYVPGTTNHDIALLRLHQPVVLTDHVVPLCLPERTFSERTLAFVRFSLVSGWGQLLDRGATALELMVLNVPRLMTQDCLQQSRKVGDSPNITEYMFCAGYSDGSKDSCKGDSGGPHATHYRGTWYLTGIVSWGQGCATVGHFGVYTRVSQYIEWLQKLMRSEPRPGVLLRAPFP
# chain 2: SGTTNTVAAYNLTWKSTNFKTILEWEPKPVNQVYTVQISTKSGDWKSKCFYTTDTECDLTDEIVKDVKQTYLARVFSYPAGNVESTGSAGEPLYENSPEFTPYLETNLGQPTIQSFEQVGTKVNVTVEDERTLVRRNNTFLSLRDVFGKDLIYTLYYWKSSSSGKKTAKTNTNEFLIDVDKGENYCFSVQAVIPSRTVNRKSTDSPVECMGQEKGEFREIFYIIGAVVFVVIILVIILAISLHKCRKAGVGQSWKENSPLNVS
# B2: wild-type factor Xa (fXa) (protein)
# chain 1: ANSFLEEMKKGHLERECMEETCSYEEAREVFEDSDKTNEFWNKYKDGDQCETSPCQNQGKCKDGLGEYTCTCLEGFEGKNCELFTRKLCSLDNGDCDQFCHEEQNSVVCSCARGYTLADNGKACIPTGPYPCGKQTLER
# chain 2: IVGGQECKDGECPWQALLINEENEGFCGGTILSEFYILTAAHCLYQAKRFKVRVGDRNTEQEEGGEAVHEVEVVIKHNRFTKETYDFDIAVLRLKTPITFRMNVAPACLPERDWAESTLMTQKTGIVSGFGRTHEKGRQSTRLKMLEVPYVDRNSCKLSSSFIITQNMFCAGYDTKQEDACQGDSGGPHVTRFKDTYFVTGIVSWGEGCARKGKYGIYTKVTAFLKWIDRSMKTRGLPKAKSHAPEVITSSPLK
# Target: tissue factor pathway inhibitor (TFPI), P10646
# Sequence (P10646 whole entry, looked up): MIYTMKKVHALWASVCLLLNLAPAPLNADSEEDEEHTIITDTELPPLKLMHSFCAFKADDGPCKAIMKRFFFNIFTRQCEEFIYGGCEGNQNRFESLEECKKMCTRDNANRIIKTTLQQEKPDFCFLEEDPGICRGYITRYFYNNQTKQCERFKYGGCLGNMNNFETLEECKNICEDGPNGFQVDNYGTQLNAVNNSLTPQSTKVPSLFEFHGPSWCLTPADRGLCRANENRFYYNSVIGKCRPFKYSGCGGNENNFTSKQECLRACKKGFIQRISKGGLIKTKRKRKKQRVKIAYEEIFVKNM
Protein,"fXa formation from fX (170 nM) by fVIIa/TF, measured by Spectrozyme-Xa cleavage","fXa chromogenic activity (cleavage of Spectrozyme-fXa, 100 µM) after 2 hour incubation"
B1,fXa combined with TFPI (included at the physiological concentration of 2.4 nM) and rapidly inhibited fVIIa/TF activity,–
B2,–,"For fXa at both 0.5 nM and 1 nM, a 2 nM concentration of TFPI was enough to almost completely inhibit the activity of fXa; also recorded: Such inhibition was also significant when TFPI's concentration was at 1 nM"
